From patent publication US12643926B2, “LysM receptor motifs” (Aarhus Universitet, priority 2020, dated 2026)

Assay: Biolayer interferometry of LYS11 ectodomains binding to CO5
Conditions: BLI; result in words
Description: Binding of L. japonicus LYS11 ectodomain and domain-swapped versions of L. japonicus LYS11 ectodomain to ligands was measured on an Octet RED 96 system (Pall ForteBio). The ligands used were CO5 chitin oligomer (corresponding to the backbone of S. meliloti Nod factor LCO-V), M. loti Nod factor LCO, and S. meliloti Nod factor LCO. S. meliloti LCO consists of a tetrameric/pentameric N-acetylglucosamine backbone that is O-sulfated on the reducing terminal residue, O-acetylated on the non-reducing terminal residue, and mono-N-acylated by unsaturated C16 acyl groups. M. loti LCO is a pentameric N-acetylglucosamine with a cis-vaccenic acid and a carbamoyl group at the non-reducing terminal residue together with a 2,4-O-acetylfucose at the reducing terminal residue. Biotinylated ligand conjugates were immobilized on streptavidin biosensors (kinetic quality, Pall ForteBio) at a concentration of 125-250 nM for 5 minutes. Data analysis was performed in GraphPad Prism 6 software (GraphPad Software, Inc.). Equilibrium dissociation constants derived from the steady-state were determined by applying a non-linear regression (one site, specific binding) to the response at equilibrium plotted against the protein concentration. Kinetic parameters were determined by non-linear regression (association followed by dissociation) on the subtracted data. […]

B1: L. japonicus LYS11 ectodomain: L. japonicus LYS11 ectodomain (residues 26-234 of SEQ ID NO: 255), 6xHis tag, insect cell expressed (protein)
chain: LAQLSHTNGTNFSCPVDSPPSCDTYVTYFAQSPNFLTLTSISDLFDTSPLSIARASNIKDENQNLVPGQLLLVPVTCACSGSNSFSNISHMIKEGESYYYLSTTSYENLTNWETVQDSNPNYNPYLLPVGIKVVIPLFCKCPSNYHLNKGIEYLITYVWHNNDNVSLVASKFGVSTQDIISENNFSHQNFTAATNFPILIPVTQLPSLS
modifications: 6xHis tag; Xaa = hydrophobic patch residues; Xaa = residues immediately adjacent to hydrophobic patch residues
With B1 the “binding to CO5 (chitin)” value was “able to bind CO5”.
